Assays:
NGF = assay: cell-based or functional assay
FGFR3 = assay: cell-based or functional assay

NGF, sequence (P01138 122-241): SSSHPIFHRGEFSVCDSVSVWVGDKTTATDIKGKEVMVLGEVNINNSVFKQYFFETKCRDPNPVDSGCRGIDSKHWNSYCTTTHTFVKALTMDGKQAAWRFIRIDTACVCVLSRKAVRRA

Row | anti-NGF IC50 (nM), U2OS TrkA_p75 assay; construct from HEK293 (NGF) | FGF18 EC50 (nM), BaF3/FGFR3 assay; construct from HEK293 (FGFR3) | Binder
1 | 0.62 nM | 0.06 nM | FGF18_scFv fasinumab (LH) (other) EENVDFRIHVENQTRARDDVSRKQLRLYQLYSRTSGKHIQVLGRRISARGEDGDKYAQLLVETDTFGSQVRIKGKETEFYLCMNRKGKLVGKPDGTSKECVFIEKVLENNYTALMSAKYSGWYVGFTKKGRPRKGPKTRENQQDVHFMKRYPKGQPELQKPFKYTTVTKGGGGSGGGGSGGGGSDIQMTQSPSSLSASAGDRVTITCRASQAIRNDLGWYQQKPGKAPKRLIYAAFNLQSGVPSRFSGSGSGTEFTLTISSLQPEDLASYYCQQYNRYPWTFGQGTKVEIKGGGGSGGGGSGGGGSQVQLVQSGAEVKKPGASVKVSCKVSGFTLTELSIHWVRQAPGKGLEWMGGFDPEDGETIYAQKFQGRVTMTEDTSTDTAYMELTSLRSEDTAVYYCSTIFGVVTNFDNWGQGTLVTVSS
2 | 0.43 nM | 0.16 nM | FGF18_scFv tanezumab (LH) (other) EENVDFRIHVENQTRARDDVSRKQLRLYQLYSRTSGKHIQVLGRRISARGEDGDKYAQLLVETDTFGSQVRIKGKETEFYLCMNRKGKLVGKPDGTSKECVFIEKVLENNYTALMSAKYSGWYVGFTKKGRPRKGPKTRENQQDVHFMKRYPKGQPELQKPFKYTTVTKGGGGSGGGGSGGGGSDIQMTQSPSSLSASVGDRVTITCRASQSISNNLNWYQQKPGKAPKLLIYYTSRFHSGVPSRFSGSGSGTDFTFTISSLQPEDIATYYCQQEHTLPYTFGQGTKLEIKGGGGSGGGGSGGGGSQVQLQESGPGLVKPSETLSLTCTVSGFSLIGYDLNWIRQPPGKGLEWIGIIWGDGTTDYNSAVKSRVTISKDTSKNQFSLKLSSVTAADTAVYYCARGGYWYATSYYFDYWGQGTLVTVSS

Reference: patent US20200299347A1 (Merck KGaA, published 2020)
